Measured values from patent publication US12479928B2, “Anti-cancer peptide” (Minerva Biotechnologies Corporation, priority 2014, dated 2025).

Legend:
T47D breast cancer cells = assay: Induced transition of breast cancer cells to a more metastatic state, RT-PCR of metastatic markers; format: cell-based, human
Method: In one particular experiment, T47D human breast cancer cells were cultured in standard RPMI media for 14 days with media changes every 48 hours and passed by trypsinization when approximately 75% confluent. The cells were then plated into 6-well plates and cultured in minimal stem cell media (see Example 1) that was supplemented with 4 nM NME7-AB. Media was changed every 48 hours. By about Day 4, some cells become detached from the surface and float. Media is carefully changed so as to retain the “floaters” as these are the cells that have the highest metastatic potential as evidence by RT-PCR measurement of metastatic markers. On Day 7 or 8, the floaters are harvested and counted. Samples are retained for RT-PCR measurement.
We have shown that NME7-AB promotes cancerous growth and causes cancer cells to accelerate to the highly metastatic cancer stem cell (CSC) state also called tumor initiating cells (TIC). Therefore, we conclude that NME7-X1 and an NME7 cleavage product that removes the DM10 domain also promote cancerous growth and causes cancer cells to accelerate to the highly metastatic cancer stem cell (CSC) state also called tumor initiating cells (TIC). In one example, NME7-AB was added to cancer cells in a serum-free media and in the absence of any other growth factors or cytokines. […] After 10 days cells were collected and analyzed by RT-PCR for expression of molecular markers of CSCs which were elevated by 10-200-times (FIGS. 11, 12). […]
A rho I kinase inhibitor, ROCi, ROCKi or Ri, was added to prevent the transformed cells from floating off the plate. Expression levels of various metastatic markers as well as pluripotent stem cell markers were measured for the parent cells and for the NME7-AB cultured cells.
T47D human breast cancer cells were cultured in standard RPMI media for 14 days with media changes every 48 hours and passed by trypsinization when approximately 75% confluent. […] On Day 7 or 8, the floaters are harvested and counted. […]

[1] = system: Human stem cells (iPS cat #SC101a-1); assay: Human stem cell growth and pluripotency in NME7-AB or NM23-H1 dimers; format: cell-based; conditions: for pluripotent stem cell growth / differentiation: 8 nM in Minimal Stem Cell Media
Method: For testing recombinant NME7-AB for ability to maintain pluripotency and inhibit differentiation, a soluble variant of NME7, NME7-AB, was generated and purified. Human stem cells (iPS cat #SC101a-1, System Biosciences) were grown per the manufacturer's directions in 4 ng/ml bFGF over a layer of mouse fibroblast feeder cells for four passages. These source stem cells were then plated into 6-well cell culture plates (Vita™, Thermo Fisher) that had been coated with 12.5 ug/well of a monoclonal anti-MUC1* antibody, MN-C3. Cells were plated at a density of 300,000 cells per well. The base media was Minimal Stem Cell Media consisting of: 400 ml DME/F12/GlutaMAX I (Invitrogen #10565-018), 100 ml Knockout Serum Replacement (KO-SR, Invitrogen #10828-028), 5 ml 100×MEM Non-essential Amino Acid Solution (Invitrogen #11140-050) and 0.9 ml (0.1 mM) β-mercaptoethanol (55 mM stock, Invitrogen #21985-023). The base media can be any media. In a preferred embodiment, the base media is free of other growth factors and cytokines. To the base media was added either 8 nM of NME7-AB or 8 nM NM23-H1 refolded and purified as stable dimers. Media was changed every 48 hours and due to accelerated growth, had to be harvested and passaged at Day 3 post-plating.
Cell counts at the first harvest verified that culture in NME7 produced 1.4-times more cells than culture in NM23-H1 dimers.

[2] = system: SK-OV3 ovarian cancer cell line; assay: RT-PCR of metastatic markers after culture in NME7-AB, SK-OV3; format: cell-based, human; conditions: 72 or 144 hours
Source text: (§1) FIGS. 37A-37C show graphs of RT-PCR measurements of metastatic markers in cancer cells after being cultured in a serum-free media containing NME7-AB compared to the standard media.

[3] = system: OV-90 ovarian cancer cell line; assay: RT-PCR of metastatic markers after culture in NME7-AB, OV-90; format: cell-based, human; conditions: 72 or 144 hours
Source text: as §1

B1: NME7-AB: recombinant human NME7 devoid of the DM10 domain, NDPK A and B domains, about 33 kDa monomer (protein)
chain: MEKTLALIKPDAISKAGEIIEIINKAGFTITKLKMMMLSRKEALDFHVDHQSRPFFNELIQFITTGPIIAMEILRDDAICEWKRLLGPANSGVARTDASESIRALFGTDGIRNAAHGPDSFASAAREMELFFPSSGGCGPANTAKFTNCTCCIVKPHAVSEGLLGKILMAIRDAGFEISAMQMFNMDRVNVEEFYEVYKGVVTEYHDMVTEMYSGPCVAMEIQQNNATKTFREFCGPADPEIARHLRPGTLRAIFGKTKIQNAVHCTDLPEDGLLEVQYFFKILDN
CXCR4 up-regulation (T47D breast cancer cells; 4 nM NME7-AB in minimal stem cell media, floaters Day 7 or 8): 40-200 times | elevation of molecular markers of CSCs (T47D breast cancer cells; 16 nM NME7-AB, after 10 days): 10-200 times | increase in expression of molecular markers such as CXCR4 (T47D breast cancer cells; serum-free media, within 7-10 days): more than 100 fold | pluripotent stem cell growth / differentiation [1]: fully supported human stem cell growth, pluripotency, and resisted differentiation | pluripotent stem cell growth / differentiation ([1]; listed as NME7): no differentiation even when 100% confluent | cell number relative to culture in NM23-H1 dimers ([1]; 8 nM, cell counts at first harvest): 1.4 times | metastatic marker expression after culture in NME7-AB [2]: increase expression of metastatic markers CHD1, SOX2 and NME7-X1 | metastatic marker expression after culture in NME7-AB [3]: increase expression of metastatic markers CXCR4 and NME7-X1
